Literature values in article PMC7062049.

Biological target: HP1β CSD (Mus musculus) (UniProt P83917)

**Q.** For HP1β CSD (from UniProt P83917), which Kd is on record?
**A.** The Kd was 150 nM.
